# PMC12421323
# Assays:
# nucleolin (C23) [1] = biological target: T1, nucleolin (C23) (UniProt P19338 2-710); assay: EMSA
# nucleolin (C23) [2] = biological target: T1, nucleolin (C23); assay: competition
# nucleolin (C23) [3] = biological target: T1, nucleolin (C23); assay: EMSA; remark: listed apart in the source
# T1 sequence (P19338 2-710): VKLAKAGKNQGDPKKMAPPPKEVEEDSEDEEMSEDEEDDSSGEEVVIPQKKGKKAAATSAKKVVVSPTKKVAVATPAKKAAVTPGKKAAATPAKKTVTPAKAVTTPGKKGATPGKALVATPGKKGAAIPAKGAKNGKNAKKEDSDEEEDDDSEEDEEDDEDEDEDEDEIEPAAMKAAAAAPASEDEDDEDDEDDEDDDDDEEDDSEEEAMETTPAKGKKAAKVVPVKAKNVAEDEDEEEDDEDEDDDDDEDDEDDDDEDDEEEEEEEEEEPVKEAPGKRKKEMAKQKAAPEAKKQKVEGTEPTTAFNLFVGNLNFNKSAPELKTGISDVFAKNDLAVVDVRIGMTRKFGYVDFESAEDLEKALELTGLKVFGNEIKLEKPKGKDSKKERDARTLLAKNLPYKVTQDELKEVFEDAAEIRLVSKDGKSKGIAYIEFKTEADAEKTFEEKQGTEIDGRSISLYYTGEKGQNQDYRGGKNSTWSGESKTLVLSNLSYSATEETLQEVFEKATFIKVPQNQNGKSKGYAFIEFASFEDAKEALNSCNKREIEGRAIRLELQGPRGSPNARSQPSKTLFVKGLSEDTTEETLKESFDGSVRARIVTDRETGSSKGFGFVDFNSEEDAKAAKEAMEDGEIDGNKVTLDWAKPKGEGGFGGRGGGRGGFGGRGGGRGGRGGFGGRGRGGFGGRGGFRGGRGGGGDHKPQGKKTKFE
binder,measurement,setting,value
UGCUUACGUAGCGUGCCUUA (ssRNA) [ssRNA 2],binding result,nucleolin (C23) [1],binds
TTGGGCGGGCCGGGGGCGGG (structured_DNA) [VEGF G4 (unlabelled)],binding result,nucleolin (C23) [2],binds
TTGGGCGGGCCGGGGGCGGG (structured_DNA) [VEGF G4],binding result,nucleolin (C23) [3],binds
